# Results as given in patent US20130266605A1, “PEPTIDE INHIBITORS OF CD40L SIGNALING AND USES THEREFOR” (PHYLOGICA LIMITED, priority 2010, published 2013).
# Residues, ends and D or L forms follow the SMILES beside them. No end group written: not given here. PEG = not defined here
# T1: CD40 ligand (UniProt P29965 108-261, limits assumed)
# T1 sequence (looked up): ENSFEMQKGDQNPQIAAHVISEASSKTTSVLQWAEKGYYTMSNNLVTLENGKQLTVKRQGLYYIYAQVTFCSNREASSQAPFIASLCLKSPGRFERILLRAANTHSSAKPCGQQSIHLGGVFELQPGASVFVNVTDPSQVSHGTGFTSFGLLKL
# T2: CD40L (Homo sapiens, UniProt P29965)
# T2 sequence (P29965 113-261 limits assumed): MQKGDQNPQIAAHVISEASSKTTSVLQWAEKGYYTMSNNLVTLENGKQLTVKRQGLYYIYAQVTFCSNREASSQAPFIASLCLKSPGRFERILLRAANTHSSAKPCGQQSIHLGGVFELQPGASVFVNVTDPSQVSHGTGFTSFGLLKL
# B1: CD40L M9_789 (peptide)
# peptide: LLAEQAGTLKSELEAMPLGEYEHAARYVSEVECNWKTFAGNYSECDHCHANHQDWITDIELEESELEVNDYHWILHYTHDEDVEDEMRIHDEHEAKFYYFWPNFT
# notes: Base peptide
# B2: CD40L M8_720 (peptide)
# peptide: RLPETRKAQAALATKYGIYGFCYYHYWFNGRRILESPVDAMLESGEPDFPFMLCWANENWT
# notes: Base peptide
# Target: T1, CD40 ligand
# Experiment: cell-based or functional assay
# Details: not given
row,Molecule,"EC50 unmodified peptide, inhibition of CD40L-induced CD86 expression on primary B-cells"
1,LCEMIAIYVFLWKKVFL [CD40L M7_217],2500 nM

# Target: T2, CD40L
# Experiment: Octet Red label-free association/dissociation analysis
# Assay type: binding
# Details: Cys-Ser derivative peptides; read-out: KD value
# Description: Label-free analyses of the associations and dissociations of base peptides and serine derivatives of base peptides with the CD40L target protein were performed using the Octet Red system (ForteBio, Inc., USA) according to the manufacturer's instructions. These analyses provide kinetic constants of CD40L binding activity, especially the association rate constant (Ka) and dissociation rate constant ([…]) of binding, i.e., measures of the “on” and “off” rates of the peptides relative to soluble CD40L.
row,Molecule,Kd
1,CC[C@H](C)[C@H](NC(=O)[C@H](CC(N)=O)NC(=O)[C@H](Cc1ccccc1)NC(=O)[C@@H]1CCCN1C(=O)[C@@H](NC(=O)[C@H](CC(N)=O)NC(=O)[C@@H](NC(=O)CNC(=O)[C@H](Cc1ccccc1)NC(=O)[C@H](CC(C)C)NC(=O)[C@@H](NC(=O)[C@H](Cc1ccccc1)NC(=O)[C@H](CO)NC(=O)[C@@H](N)Cc1c[nH]cn1)C(C)C)C(C)C)C(C)C)C(=O)N[C@H](C(=O)N[C@@H](CC(=O)O)C(=O)N[C@@H](Cc1ccccc1)C(=O)N[C@@H](CCC(N)=O)C(=O)N[C@@H](CCSC)C(=O)N[C@@H](CCCNC(=N)N)C(=O)N[C@H](C(=O)N[C@@H](CCCCN)C(=O)N[C@@H](CO)C(=O)O)C(C)C)[C@@H](C)CC [CD40L M1_42s] (H-HSFVLFGVNVPFNIIDFQMRVKS-OH),100 nM
2,CC[C@H](C)[C@H](NC(=O)[C@H](C)NC(=O)[C@@H](NC(=O)[C@H](CCSC)NC(=O)[C@H](CCC(=O)O)NC(=O)[C@H](CO)NC(=O)[C@@H](N)CC(C)C)[C@@H](C)CC)C(=O)N[C@@H](Cc1ccc(O)cc1)C(=O)N[C@H](C(=O)N[C@@H](Cc1ccccc1)C(=O)N[C@@H](CC(C)C)C(=O)N[C@@H](Cc1c[nH]c2ccccc12)C(=O)N[C@@H](CCCCN)C(=O)N[C@@H](CCCCN)C(=O)N[C@H](C(=O)N[C@@H](Cc1ccccc1)C(=O)N[C@@H](CC(C)C)C(=O)O)C(C)C)C(C)C [CD40L M7_217s] (H-LSEMIAIYVFLWKKVFL-OH; N-terminus and C-terminus assumed),100 nM
3,CC(C)C[C@H](NC(=O)[C@H](Cc1ccc(O)cc1)NC(=O)[C@H](CC(=O)O)NC(=O)[C@H](CCCNC(=N)N)NC(=O)[C@H](CCCNC(=N)N)NC(=O)[C@H](Cc1ccccc1)NC(=O)[C@H](CO)NC(=O)[C@H](CO)NC(=O)[C@H](Cc1ccc(O)cc1)NC(=O)[C@H](Cc1ccccc1)NC(=O)[C@H](CCCNC(=N)N)NC(=O)[C@H](Cc1ccccc1)NC(=O)[C@H](CC(C)C)NC(=O)[C@H](Cc1ccccc1)NC(=O)[C@H](Cc1ccccc1)NC(=O)[C@H](CC(C)C)NC(=O)[C@H](CC(N)=O)NC(=O)[C@H](Cc1ccc(O)cc1)NC(=O)[C@H](CCCNC(=N)N)NC(=O)[C@@H]1CCCN1C(=O)[C@@H]1CCCN1)C(=O)N[C@@H](Cc1ccc(O)cc1)C(=O)N[C@@H](Cc1ccccc1)C(=O)O [CD40L M1_9s] (H-PPRYNLFFLFRFYSSFRRDYLYF-OH),300 nM

# Same assay, conditions: base peptides; equilibrium dissociation constant; read-out: KD
row,Molecule,Kd
1,CC[C@H](C)[C@H](NC(=O)[C@H](CC(N)=O)NC(=O)[C@H](Cc1ccccc1)NC(=O)[C@@H]1CCCN1C(=O)[C@@H](NC(=O)[C@H](CC(N)=O)NC(=O)[C@@H](NC(=O)CNC(=O)[C@H](Cc1ccccc1)NC(=O)[C@H](CC(C)C)NC(=O)[C@@H](NC(=O)[C@H](Cc1ccccc1)NC(=O)[C@H](CO)NC(=O)[C@@H](N)Cc1c[nH]cn1)C(C)C)C(C)C)C(C)C)C(=O)N[C@H](C(=O)N[C@@H](CC(=O)O)C(=O)N[C@@H](Cc1ccccc1)C(=O)N[C@@H](CCC(N)=O)C(=O)N[C@@H](CCSC)C(=O)N[C@@H](CCCNC(=N)N)C(=O)N[C@H](C(=O)N[C@@H](CCCCN)C(=O)N[C@@H](CS)C(=O)O)C(C)C)[C@@H](C)CC [CD40L M1_42] (H-HSFVLFGVNVPFNIIDFQMRVKC-OH; N-terminus and C-terminus assumed),30 nM
2,LDLFGDFNGLPEGADRTEFYQHEGHWQNRMILGDSLQVMASLAEREGLRGKVQCIYFDPPYGIKFN [CD40L M9_763],27 nM

# Target: T1, CD40 ligand
# Experiment: Octet Red label-free (BLI)
# Details: not given
row,Molecule,Kd
1,B1,4 nM
2,PFTWRPTIFWIIQLIVYMRHF (Base peptide; also called CD40L M1-206) [CD40L M7_206],280 nM
3,B2,4 nM
4,LWRLNEWNYSDAELLSLIEWCIDH (Base peptide) [CD40L M8_721],7 nM

# Target: T1, CD40 ligand
# Experiment: Alphascreen, unmodified peptide, inhibition of CD40L/CD40-Fc
# Details: not given
row,Molecule,EC50
1,B1,331 nM
2,PFTWRPTIFWIIQLIVYMRHF (Base peptide; also called CD40L M1-206) [CD40L M7_206],190 nM
3,B2,238 nM
4,LWRLNEWNYSDAELLSLIEWCIDH (Base peptide) [CD40L M8_721],524 nM

# Target: T1, CD40 ligand
# Experiment: Alphascreen, PEGylated peptide, inhibition of CD40L/CD40-Fc
# Details: not given
row,Molecule,EC50
1,{PEG}-LLYVKVISFFSMLVQYNNFQTYK (reading uncertain) [PEGylated CD40L M2_159s],120 nM
2,{PEG}-SIQYHWRYSRFKYYFQLIWVYYSHV (reading uncertain) [PEGylated CD40L M1_82s],120 nM
